Data reported in patent EP4628097A1 (Innovent Biologics (Suzhou) Co., Ltd., dated 2025).

Legend:
human Ang2 [1] = target: T1, human Ang2 (human, UniProt O15123 19-496, limits assumed); experiment: ELISA, relative binding activity; final formula 40 mg/mL, 25 C, 2M
T1 construct: Bought proteins; also called hAng2-biotin; Ang2-Bio (Sino)
T1 sequence (looked up): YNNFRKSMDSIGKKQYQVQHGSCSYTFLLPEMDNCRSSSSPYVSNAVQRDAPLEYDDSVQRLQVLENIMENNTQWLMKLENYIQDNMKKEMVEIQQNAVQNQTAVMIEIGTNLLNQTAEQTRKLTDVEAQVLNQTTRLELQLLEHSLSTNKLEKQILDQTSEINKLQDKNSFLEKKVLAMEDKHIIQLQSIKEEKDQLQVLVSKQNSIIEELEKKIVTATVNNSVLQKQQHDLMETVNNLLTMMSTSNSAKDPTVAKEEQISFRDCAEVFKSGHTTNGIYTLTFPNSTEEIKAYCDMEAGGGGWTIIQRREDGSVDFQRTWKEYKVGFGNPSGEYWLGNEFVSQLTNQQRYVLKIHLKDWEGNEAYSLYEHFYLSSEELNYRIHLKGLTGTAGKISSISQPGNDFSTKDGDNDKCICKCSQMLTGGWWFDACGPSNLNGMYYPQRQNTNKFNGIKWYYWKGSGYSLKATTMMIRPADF

human Ang2 [2] = target: T1, human Ang2; experiment: ELISA, relative binding activity; IEX04-012 about 40 mg/mL in F9, 40 C, 0 weeks
human VEGF165 [3] = target: T2, human VEGF165 (human, UniProt P15692-4 27-191); experiment: as above
T2 construct: all are put under this molecule; also called VEGF A; VEGFA

human Ang2 [4] = target: T1, human Ang2; experiment: ELISA, relative binding activity; 150 mg/mL formula, T0
human VEGF165 [5] = target: T2, human VEGF165; experiment: as above
human Ang2 [6] = target: T1, human Ang2; experiment: ELISA, relative binding activity; IEX04-012 about 40 mg/mL in F8, 40 C, 0 weeks
human VEGF165 [7] = target: T2, human VEGF165; experiment: as above
human Ang2 [8] = target: T1, human Ang2; experiment: ELISA, relative binding activity; IEX04-012 about 40 mg/mL in F2, 40 C, 0 weeks
human VEGF165 [9] = target: T2, human VEGF165; experiment: as above
human Ang2 [10] = target: T1, human Ang2; experiment: ELISA, relative binding activity; IEX04-012 about 40 mg/mL in F9, 40 C, 1 week
human VEGF165 [11] = target: T2, human VEGF165; experiment: as above
human Ang2 [12] = target: T1, human Ang2; experiment: ELISA, relative binding activity; 120 mg/mL formula, 25 C, 1M
human VEGF165 [13] = target: T2, human VEGF165; experiment: as above
human Ang2 [14] = target: T1, human Ang2; experiment: ELISA, relative binding activity; IEX04-012 about 40 mg/mL in F10, 40 C, 2 weeks
human VEGF165 [15] = target: T2, human VEGF165; experiment: as above
human Ang2 [16] = target: T1, human Ang2; experiment: ELISA, relative binding activity; IEX04-012 about 40 mg/mL in F1, 40 C, 1 week
human VEGF165 [17] = target: T2, human VEGF165; experiment: as above
human Ang2 [18] = target: T1, human Ang2; experiment: ELISA, relative binding activity; 120 mg/mL formula, 2-8 C, 6M
human VEGF165 [19] = target: T2, human VEGF165; experiment: as above
human Ang2 [20] = target: T1, human Ang2; experiment: ELISA, relative binding activity; IEX04-012 about 40 mg/mL in F9, 40 C, 2 weeks
human VEGF165 [21] = target: T2, human VEGF165; experiment: as above
human Ang2 [22] = target: T1, human Ang2; experiment: ELISA, relative binding activity; final formula 40 mg/mL, T0
human VEGF165 [23] = target: T2, human VEGF165; experiment: as above
human Ang2 [24] = target: T1, human Ang2; experiment: ELISA, relative binding activity; IEX04-012 about 40 mg/mL in F8, 40 C, 2 weeks
human VEGF165 [25] = target: T2, human VEGF165; experiment: as above

T2 sequence (P15692 other isoform, or with tags, fused parts or gaps limits assumed): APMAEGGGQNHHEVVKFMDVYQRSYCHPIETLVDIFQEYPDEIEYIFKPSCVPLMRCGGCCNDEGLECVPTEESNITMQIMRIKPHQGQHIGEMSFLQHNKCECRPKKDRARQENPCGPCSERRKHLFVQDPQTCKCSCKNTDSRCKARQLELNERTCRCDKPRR

- Relative binding Activity to Ang2 (ELISA, %) (human Ang2 [1]): 84%
- Relative binding Activity to Ang2 (ELISA, %) (human Ang2 [2]): 100%
- Relative binding Activity to VEGF (ELISA, %) (human VEGF165 [3]): 100%
- Relative binding Activity to Ang2 (ELISA, %) (human Ang2 [4]): 103%
- Relative binding Activity to VEGF A (ELISA, %) (human VEGF165 [5]): 92%
- Relative binding Activity to Ang2 (ELISA, %) (human Ang2 [6]): 100%
- Relative binding Activity to VEGF (ELISA, %) (human VEGF165 [7]): 100%
- Relative binding Activity to Ang2 (ELISA, %) (human Ang2 [8]): 100%
- Relative binding Activity to VEGF (ELISA, %) (human VEGF165 [9]): 100%
- Relative binding Activity to Ang2 (ELISA, %) (human Ang2 [10]): 96%
- Relative binding Activity to VEGF (ELISA, %) (human VEGF165 [11]): 97%
- Relative binding Activity to Ang2 (ELISA, %) (human Ang2 [12]): 93%
- Relative binding Activity to VEGF A (ELISA, %) (human VEGF165 [13]): 96%
- Relative binding Activity to Ang2 (ELISA, %) (human Ang2 [14]): 99%
- Relative binding Activity to VEGF (ELISA, %) (human VEGF165 [15]): 99%
- Relative binding Activity to Ang2 (ELISA, %) (human Ang2 [16]): 103%
- Relative binding Activity to VEGF (ELISA, %) (human VEGF165 [17]): 98%
- Relative binding Activity to Ang2 (ELISA, %) (human Ang2 [18]): 96%
- Relative binding Activity to VEGF A (ELISA, %) (human VEGF165 [19]): 99%
- Relative binding Activity to Ang2 (ELISA, %) (human Ang2 [20]): 90%
- Relative binding Activity to VEGF (ELISA, %) (human VEGF165 [21]): 99%
- Relative binding Activity to Ang2 (ELISA, %) (human Ang2 [22]): 95%
- Relative binding Activity to VEGF A (ELISA, %) (human VEGF165 [23]): 103%
- Relative binding Activity to Ang2 (ELISA, %) (human Ang2 [24]): 91%
- Relative binding Activity to VEGF (ELISA, %) (human VEGF165 [25]): 102%
B1: IEX04-012 (bispecific antibody)
chain: DIQLTQSPSSLSASVGDRVTITCSASQDISNYLNWYQQKPGKAPKVLIYFTSSLHSGVPSRFSGSGSGTDFTLTISSLQPEDFATYYCQQYSTVPWTFGCGTKVEIKGGGGSGGGGSGGGGSGGGGSEVQLVESGGGLVQPGGSLRLSCAASGYDFTHYGMNWVRQAPGKCLEWVGWINTYTGEPTYAADFKRRFTFSLDTSKSTAYLQMNSLRAEDTAVYYCAKYPYYYGTSHWYFDVWGQGTLVTVSSGGGGSGGGGSGGGGSEVQLLESGGGLVQPGGSLRLSCAASGFALDYYAIGWFRQAPGKGLEGVSCISSGEGSTYYADSVKGRFTISRDNSKNTVYLQMNSLRAEDTAVYYCATDSRGDDVACEGLRRNEYDYWGQGTLVTVSS
